In patent US20230331827A1, “POTASSIUM CHANNEL INHIBITORS” (priority 2017, published 2023):

T1: huASIC1a (Homo sapiens, UniProt P78348)
T1 construct: host or cells: HEK293
T1 sequence (P78348 1-528): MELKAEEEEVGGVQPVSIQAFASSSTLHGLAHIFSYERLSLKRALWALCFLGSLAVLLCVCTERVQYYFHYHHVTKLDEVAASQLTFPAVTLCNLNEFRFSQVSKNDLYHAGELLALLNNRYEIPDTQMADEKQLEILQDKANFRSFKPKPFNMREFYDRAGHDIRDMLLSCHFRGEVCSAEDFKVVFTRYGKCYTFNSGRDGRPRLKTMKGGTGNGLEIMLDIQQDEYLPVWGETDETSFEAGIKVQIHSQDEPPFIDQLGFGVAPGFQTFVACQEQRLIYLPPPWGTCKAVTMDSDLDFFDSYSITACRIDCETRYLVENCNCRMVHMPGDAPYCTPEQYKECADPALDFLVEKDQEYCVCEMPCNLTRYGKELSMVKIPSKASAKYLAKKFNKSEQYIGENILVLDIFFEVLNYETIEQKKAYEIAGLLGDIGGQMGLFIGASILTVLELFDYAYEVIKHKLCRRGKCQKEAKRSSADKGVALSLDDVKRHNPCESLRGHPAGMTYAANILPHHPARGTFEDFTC


Target: T1, huASIC1a
Assay: QPatch electrophysiology, HEK293 cells stably expressing huASIC1a
Assay type: cell-based
Conditions: ASIC1a current at pH 6.0 after 15-20 minutes KnotBody pre-incubation, 2.3-6.6 µM
Experimental: Knottin Kv 1.3 and ASIC1a blockers expressed in the KnotBody format (see examples 6 and 7) were tested for their ability to inhibit the function of the ion channel targets. The effect of these KnotBodies on cells expressing the human Kv 1.3 (huKv1.3) or human ASIC1a channels was assessed using QPatch automated whole-cell patch-clamp electrophysiology (Sophion).
To functionally assess the ASIC1a KnotBodies, HEK293 cells stably expressing huASIC1a (Sophion) were analysed using a QPatch electrophysiology assay in the presence or absence of the KnotBody fusions (using KB_A12 as a recipient and replacing the original EETI-II donor as shown in Table 8). The “parental” KB_A12 with the EETI-II donor was used as a negative control. Internal and external physiological solutions were freshly prepared prior to the assay. The extracellular solution contained 145 mM NaCl, 4 mM KCl, 2 mM CaCl2, 1 mM MgCl2, 10 mM HEPES and 10 mM glucose; the pH was adjusted to 7.4 with NaOH (for control, resting-state pH) or 6.0 with MES (for acidic, activating-state pH); the osmolarity was ~ 305 mOsm/L. The intracellular solution contained: CsF (140 mM), HEPES (10 mM), NaCl (10 mM) and EGTA/CsOH (1 mM/5 mM); the pH was adjusted to 7.3 with CsOH; osmolarity was ~ 320 mOsm/L.
Throughout ASIC 1a recordings the recording cell membrane voltage was clamped at -60 mV. ASIC1a baseline control currents were elicited by applying external solution at activating pH 6.0 for 3000 ms. This activating pH application was repeated three further times, giving four baseline control ASIC1a currents. The recording cells were then pre-incubated with KnotBody diluted in external solution at pH 7.4 for 15-20 minutes. Following this KnotBody pre-incubation the same concentration of KnotBody in external solution at activating pH 6.0 was applied to the cell recording.
At the end of each KnotBody incubation and subsequent ASIC1a current activation, a full blocking concentration (300 nM) of the ASIC1a knottin inhibitor PcTx1 (positive control) was perfused onto the cell recording and a final activating pH 6.0 external solution was applied. The percentage remaining signal between activating pH 6.0 baseline (i.e. pre-KnotBody) and post-KnotBody incubation was determined.

Molecule	% current remaining [%]
KB_A07: EETI-II knottin fused into VL CDR2, D1A12 VH; parental KnotBody, isotype control (antibody, V domains shown) VH: EVQLVESGGGLVRPGGSLRLSCAASGFTFSSYAMSWVRQAPGKGLEWVSAISGSGGSTYYADSVKGRFTISRDNTKNSLYLQMTSLRADDTAFYYCVKDFGPGYGTGWFDYWGPGTLVTVSS VL: DIQMTQSPSSLSASVGDRVTITCRASQSISSYLNWYQQKPGKAPKLLIYAAGVCPRILMRCKQDSDCLAGCVCGPNGFCGSRSGVPSRFSGSGSGTDFTLTISSLQPEDFATYYCQQGASPPYTFGQGTKVEIKRT	70.9
KB_A12: EETI-II knottin fused into VL CDR2, D1A12 VH; parental KnotBody, isotype control (antibody, V domains shown) VH: EVQLVESGGGLVRPGGSLRLSCAASGFTFSSYAMSWVRQAPGKGLEWVSAISGSGGSTYYADSVKGRFTISRDNTKNSLYLQMTSLRADDTAFYYCVKDFGPGYGTGWFDYWGPGTLVTVSS VL: QSVLTQPPSVSEAPRQRVTITCSGSSSNIGNNAVNWYQQLPGKAPKLLIYAAGRCPRILMRCKQDSDCLAGCVCGPNGFCGANSGVSDRFSAAKSGTSASLAINGLRSEDEADYYCAAWDDSLNGYVFGTGTKLTVLGQP	67.4
